Reference: patent US9512172B2, “Ethanol dependence of alpha1 antitrypsin C-terminal Lys truncation by basic carboxypeptidases” (Baxalta Incorporated, priority 2006, dated 2016)

What was measured:
CPN present in the paste = target: T1, CPN present in the paste (Homo sapiens, UniProt P15169); assay: Effect of CP inhibitors on C-terminal lysine truncation in dissolved, ethanol-treated IV-1 paste (IEF); type: biochemical
T1 construct: Cohn IV-1 precipitate is usually derived after ethanol fractionation of plasma; from tissue; host or cells: Cohn IV-1 paste (ethanol precipitate of plasma)
T1 sequence (P15169 21-458): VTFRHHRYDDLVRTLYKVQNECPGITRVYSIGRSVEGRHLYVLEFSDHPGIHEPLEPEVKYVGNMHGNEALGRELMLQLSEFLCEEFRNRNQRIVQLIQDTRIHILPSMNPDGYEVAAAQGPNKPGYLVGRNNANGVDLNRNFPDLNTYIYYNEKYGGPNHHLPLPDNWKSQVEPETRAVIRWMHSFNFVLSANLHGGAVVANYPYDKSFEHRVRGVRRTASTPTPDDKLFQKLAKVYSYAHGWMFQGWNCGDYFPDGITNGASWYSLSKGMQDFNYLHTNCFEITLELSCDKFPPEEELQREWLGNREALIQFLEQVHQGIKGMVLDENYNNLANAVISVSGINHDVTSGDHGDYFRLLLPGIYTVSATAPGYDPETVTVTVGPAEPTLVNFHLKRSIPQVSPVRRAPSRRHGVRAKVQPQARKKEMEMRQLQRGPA
T1 sequence (P22792 22-545 partner): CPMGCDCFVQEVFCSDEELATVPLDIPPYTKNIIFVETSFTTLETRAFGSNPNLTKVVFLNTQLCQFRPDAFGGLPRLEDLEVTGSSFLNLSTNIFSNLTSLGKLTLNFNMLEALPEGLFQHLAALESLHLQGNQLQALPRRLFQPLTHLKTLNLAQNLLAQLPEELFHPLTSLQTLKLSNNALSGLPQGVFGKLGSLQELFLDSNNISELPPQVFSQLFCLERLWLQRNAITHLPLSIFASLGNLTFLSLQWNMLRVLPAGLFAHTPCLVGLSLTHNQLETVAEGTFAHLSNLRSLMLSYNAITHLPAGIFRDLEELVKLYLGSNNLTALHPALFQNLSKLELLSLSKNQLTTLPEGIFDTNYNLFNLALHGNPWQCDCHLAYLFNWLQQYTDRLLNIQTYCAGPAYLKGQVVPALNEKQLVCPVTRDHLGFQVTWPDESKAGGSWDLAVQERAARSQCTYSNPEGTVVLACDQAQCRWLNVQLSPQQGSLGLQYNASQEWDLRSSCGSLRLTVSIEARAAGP
Experimental: Cohn IV-1 paste was dissolved in 2.6 volumes of 10 mM Tris-buffer at pH 8.8 and incubated for 30 min at 22° C. The suspension was made 40% in ethanol (by addition of 2.4 volumes of ethanol), stirred for a further 60 min, diluted with the same Tris-buffer to 10% ethanol and extracted for a further 6 h.
The following inhibitors were added in parallel during extraction and dilution with Tris-buffer: 100 mM 6-aminocaproic acid, 10 μM or 1 nM 2-mercaptomethyl-3-guanidinoethylthiopropanoic acid (a more specific inhibitor of CPN). The samples were characterized by high resolution isoelectric focusing.
For high resolution isoelectric focusing a new hybrid IEF method using IPG-Immobiline gels (GE Healthcare Bio-Sciences, pI 4.2-4.9, Uppsala, Sweden) was developed which is similar to that described by Weidinger^54. Samples were diluted with water to 0.5 mg A1PI/mL and 5 mM DTE was added. Samples (20 μl) were applied close to the cathode on the pre-focused gel and focused for 150 min (5000 Vh). For paste extracts focusing time was extended to 420 min. Gels were stained with Coomassie Brilliant Blue G-250 (BioRad, Hercules, USA) as described by Neuhoff^55. Blotting and immunostaining were done with a rabbit anti-A1PI antibody (Rabbit Anti-Human Alpha-1-Antitrypsin, #A0012, DakoCytomation, Glostrup, Denmark).

CPN = target: T2, CPN (Homo sapiens, UniProt P15169); assay: CPN-catalysed removal of C-terminal lysine from A1PI products, released Lys by HPLC; type: biochemical; set-up: purchased Elastin Company; settings: for Ethanol concentration at which linear increase of Lys removal starts: incubation with CPN, 10 min
T2 sequence (P15169 21-458): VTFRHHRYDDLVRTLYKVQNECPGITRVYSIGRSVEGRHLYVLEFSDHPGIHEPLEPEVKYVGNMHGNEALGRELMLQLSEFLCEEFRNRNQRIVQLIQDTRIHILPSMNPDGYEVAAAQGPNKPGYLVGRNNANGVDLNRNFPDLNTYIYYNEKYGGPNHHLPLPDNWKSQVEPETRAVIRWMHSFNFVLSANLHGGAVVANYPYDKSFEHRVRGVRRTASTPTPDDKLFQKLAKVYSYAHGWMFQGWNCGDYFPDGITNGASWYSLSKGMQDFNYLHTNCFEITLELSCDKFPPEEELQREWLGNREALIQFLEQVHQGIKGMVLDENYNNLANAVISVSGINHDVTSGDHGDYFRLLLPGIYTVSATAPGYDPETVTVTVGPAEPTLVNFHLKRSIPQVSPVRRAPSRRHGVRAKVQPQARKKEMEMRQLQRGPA
T2 sequence (P22792 22-545 partner): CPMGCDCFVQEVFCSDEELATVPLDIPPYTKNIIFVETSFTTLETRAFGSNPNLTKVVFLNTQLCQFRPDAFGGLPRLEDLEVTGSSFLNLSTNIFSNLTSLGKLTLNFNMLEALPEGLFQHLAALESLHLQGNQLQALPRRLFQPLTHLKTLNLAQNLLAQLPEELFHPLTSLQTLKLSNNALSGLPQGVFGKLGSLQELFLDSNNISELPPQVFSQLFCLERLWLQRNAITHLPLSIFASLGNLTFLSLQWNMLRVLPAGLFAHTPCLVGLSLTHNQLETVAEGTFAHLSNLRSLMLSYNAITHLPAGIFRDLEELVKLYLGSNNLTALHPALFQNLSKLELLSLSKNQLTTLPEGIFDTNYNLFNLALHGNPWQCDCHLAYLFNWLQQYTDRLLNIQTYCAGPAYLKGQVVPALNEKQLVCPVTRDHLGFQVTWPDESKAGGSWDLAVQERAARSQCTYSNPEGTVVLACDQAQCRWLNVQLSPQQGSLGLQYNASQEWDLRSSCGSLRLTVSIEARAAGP
Experimental: The cleaved C-terminal lysine of A1PI was determined using automated orthophtalicdialdehyd (OPA) pre-column derivatization and high-performance liquid chromatography. The derivatization reagent was prepared by dissolving 100 mg of OPA in 2.5 mL of methanol by short ultrasonication, adding 23 mL of deoxygenated sodium borate buffer (0.2 mol/L, pH 9.0), 100 μl of 2-mercaptoethanol and 100 μl of Brij 35 as described^53. The system used was an ASTED HPLC system (Gilson, Paris) with Shimadzu RF-A fluorescence detector and a C-18 Chromolith ODS 4.7*100 mm column. A mixture of 50 mM KH2PO4, acetonitrile and methanol (ratio 50:24:26) was used as mobile phase and ornithine was used as internal standard.
To 30 μl 0.5 mM A1PI (using ARALAST® (Alpha1-Proteinase Inhibitor (Human)) or PROLASTIN® (Alpha1-Proteinase Inhibitor (Human))) 10 μl water or ethanol (different concentrations) was added. Afterwards 10 μl CPN (500 U/L) was added and after a 10 minutes incubation interval the reaction was stopped by adding 50 μl internal standard in 0.25 M HCl. The cleaved lysine was quantified as described above.

[1] = HP-SEC aggregate content of A1PI products; type: physicochemical
Experimental: ARALAST® (Alpha1-Proteinase Inhibitor (Human)), Prolastin PROLASTIN® (Alpha1-Proteinase Inhibitor (Human)), and ZEMAIRA® (Alpha1-Proteinase Inhibitor (Human)) were analyzed by high-resolution IEF and high-performance size-exclusion chromatography (HP-SEC). Preparative separated isoforms from IEF were further purified by chromatography and subjected to mass spectrometry for sequence analyses, peptide mapping, and glycosylation analysis. Deamidation was quantified by enzymatic isoaspartate detection. Multiple sequence alignments and structural bioinformatics analyses were performed.

Inhibition of Lys truncation induced by the procedure 40=>10% EtOH (CPN present in the paste; dissolved IV-1 paste, pH 8.8, 6 h) | Inhibition of lysine removal from A1PI (CPN present in the paste; inhibitor at 100 mM) | Ethanol concentration at which linear increase of Lys removal starts (CPN) | Lys removed by CPN (CPN; absence of ethanol) | Compound | Aggregate content [1]
could be inhibited | completely inhibited |  |  | NCCCCCC(=O)O [6-amino caproic acid] | 
 |  | 10 % ethanol |  | ARALAST: Alpha1-Proteinase Inhibitor (Human), approved plasma-derived A1PI concentrate, made from Cohn IV-1+IV-4 paste | 
 |  | 5 % ethanol | very small amounts | PROLASTIN: Alpha1-Proteinase Inhibitor (Human), approved plasma-derived A1PI concentrate, purified from fraction IV-1 | approximately 30%
